Reference: the DeepSol protein solubility set

Assay: soluble on expression in E. coli; label from the status in PepcDB or PDB records
For “MVDLSRRSMLTGSWRNASNGILPPWARETTYFLAHCLRCDACIQACEADILQRGAGGYPSVDFKRGECSFCYACAQACTESLFLPRHTRAWDLVFTLTENCLARQSVECHRCQDSCEPMAITFRPTLSGIYQPQLDSQACNGCGACVAICPVSAIKAENHHAH”, the “soluble on expression in E. coli” value was “not soluble”. With “GPGSHQIRLLPLTDGFGDASMAGGTSAKIVSPMPGKVSKFLVNSGDFVEKGQALMIVEAMKMEHPVKALQDGQVSFLVKEGEVVGSDHVLATVVQKE” the “soluble on expression in E. coli” value was “soluble”. In the case of “MILLDTNVISEPLRPQPNERVVAWLDSLILEDVYLSAITVAEMRLGVALLLNGKKKNVLHERMEQSILPLFAGRILPFDEPVAAIYAQIRSYAKTHGKEIAAADGYIAATAKQHSMTVATRDTGSFFAADVAVFNPWHLEHHHHHH”, the “soluble on expression in E. coli” value was “soluble”. In the case of “MDRVLSRADKERLLELLKLPRQLWGDFGRMQQAYKQQSLLLHPDKGGSHALMQELNSLWGTFKTEVYNLRMNLGGTGFQ”, the “soluble on expression in E. coli” value was “soluble”. With “MGSDKIHHHHHHMVINIEQAIAWMASRKGKVTYSMDYRNGPSSYDCSSSVYFALRSAGASDNGWAVNTEYEHDWLIKNGYVLIAENTNWNAQRGDIFIWGKRGASAGAFGHTGMFVDPDNIIHCNYGYNSITVNNHDEIWGYNGQPYVYAYRYARKQSNAKVDNQSVVSKFEKELDVNTPLSNSNMPYYEATISEDYYVESKPDVNSTDKELLVAGTRVRVYEKVKGWARIGAPQSNQWVEDAYLIDATDM” the “soluble on expression in E. coli” value was “not soluble”. In the case of “MSILDLTKISKDSTKLQNFVKFERVKTGGLDVYMSEYSWNTKEAGTMSICDVSENTSLDYRSNHQQLLKSWISSTEKIAQLFPTTLRTFQVTPPMIAAILDLETAIPKTCDVLIIQNYVPAEMDRYQESVDQFMEKCHIREGVVLHHEVYTNSPKMFQLDYLSVTHSDWMVPSDLEEMENKIVYLDKSDFYDSDMNQFLRELKSGSSHSRLQILSIQGNSWQNYWDPSDVLEGLNAELWNQTERNQHYFLNAEHRKNFKKIADHFYPDQEDGFGAELEHGVDLSEAFDFLKNDGTRVSVRFDELILQVFVWPNEKPSRKRKAQEQGSIAKRFC”, the “soluble on expression in E. coli” value was “not soluble”. In the case of “MRIFVYGSLRQKQGNSHWMTNAQLLGDYRIDNYQLYSLGHYPGAVPGNGAVYGEVYRIDNATLAELDALRTRGGEYARQLIQTPYGSAWMYVYQRPVDGLTLIESGDWLDRNQP”, the “soluble on expression in E. coli” value was “not soluble”. For “QIYSARYSGVDVYEFIHSTGSIMKRKKDDWVNATHILKAANFAKAKRTRILEKEVLKETHEKVQGGFGKYQGTWVPLNIAKQLAEKFSVYDQLKPLFDF”, the “soluble on expression in E. coli” value was “soluble”. With “MGSDKIHHHHHHMREDFLSREEVDALLRGVSSGSTTSEQSTANPGFRPYNLATQERIVRGRMPTLEIINERFARLLRLGLFNFMRRSANVTAGPVRVMKFSEFVRNLAAPSNLNLVHIKPLRGTSLFVFDPTLVFLVVDNLFGGDGRFLPKTEGRDFTQTEQRIIQRLLNLVFDSYGKSWHPVYPIEFEYLRAETNTQFANVATPNEVVVATTFEVNFGSVVGEMHICMPYSILEPIRDLLSSTLQGEALEVDKRWVGRLSKQVQSAEVTLLANLTHAQVRLDQILNMKVGDVIPLDIPEFVTASVDGVPVMECKYGISNGRYALRMEKMLASGNSNE” the “soluble on expression in E. coli” value was “not soluble”. In the case of “MYPKQFLKFGETSLFQETVLRCLEVSDISEVFVVTNEAQKFFVIGQIKEAGYSIPPENILIEPEGKNTLPAIFFGMKEIEKKFGDSIVGVFSSDHVLDRAAMATISSAENLASDYLVTFGVVPTFPHTGYGYIKASEACSPGYRVSEFREKPDFETAKKYIEEGCLWNSGMFLFETRLFFEEARKHAPSVYGCFEKEGDINQIYECVDNISIDYGIMEKSDKVAVVRLDHKWSDLGNFAAIYDELEKDSVGNVIHDCDPMLLNSDGNLVYSRCGKIVSLIDVKDMVVVDTSDALLICPKSSSQKVKEIVSELKGRKDERAFIGQTVYRPWGSYTLLDASPGHKIKNITVLSDHKLSLQLHYHRSEHWVVVKGMACVEVDGKQFFLGPGESTFIRAGQKHRLSNPGKLPLEIIEVQLGELVDEEDIVRFDDVYGRRLEHHHHHH”, the “soluble on expression in E. coli” value was “soluble”. In the case of “HIKVGFSPEKLQPYTQLPSDFNEFWNKTKAEAARFPLTYTKEYVEKYSTDKIDCYLIRLQLNKQSQCIYGYLFYPKAEGKYPVVLCPPGAGIKTIKGPMRHKYYAEEGCIRFEIEIHGLNPELDEDTFGEISRAFSSRENGYLVNGLDSRENYYMKRVYLACVRSIDLLTSLPEWDGKNVIVQGGSQGGALALITAGLDKRVTACVANHPALSDMAGYKAGRAGGYPHLFKNTVDMDTPAKMKTLAYYDVVNFAKQITVPVYMTWGFNDNTCPPTTSYIVYNVLNCPKEALITPVNEHWTSEDTEYGHLLWIKKHLK”, the “soluble on expression in E. coli” value was “not soluble”. For “MSLKKIGVLGMGYVGIPAAVLFADAPCFEKVLGFQRNSKSSGYKIEMLNRGESPLKGEEPGLEELIGKVVKAGKFECTPDFSRISELDAVTLAIQTPFANPKDLEPDFSALIDGIRNVGKYLKPGMLVVLESTITPGTTEGMAKQILEEESGLKAGEDFALAHAPERVMVGRLLKNIREHDRIVGGIDEASTKRAVELYSPVLTVGQVIPMSATAAEVTKTAENTFRDLQIAAINQLALYCEAMGINVYDVRTGVDSLKGEGITRAVLWPGAGVGGHCLTKDTYHLERGVKIGRGELDYPEGADSIYVLARKVNDFMPAHMYNLTVAALERLGKKMDGSKVAMLGWAFIKDSDDARNTPSEPYRDLCLKAGASVMVHDPYVVNYPGVEISDNLEEVVRNADAIVVLAGHSAYSSLKADWAKKVSAKANPVIIDGRNVIEPDEFIGKGFVYKGIGRGDKNSHKIKEGHHHHHH”, the “soluble on expression in E. coli” value was “soluble”. For “MGHHHHHHSHKNMKPIGCNAVQLTGGEPTLRDDLIDIIRMIKEEGYDHIQLNTNGIRLAEDPDFALRVRVAGVNTVYLSFDGVDEKTNPKNHHEIPKILENCRRAQLGLVLVPTVIKGVNDHQLGDIIRFAAENIDIVRGVNFQPVSLVGSMPRKEREQFRITIPDCIKAIEEQTNGEIGREDFYPVPSVVPISRFVEALTGQPQYELTTHFACGMATYIFKDNGRLIPITRFVDVEGLFEF”, the “soluble on expression in E. coli” value was “not soluble”. In the case of “MSLGSNPPTKILDFLFLGGVSDATNPEFLRRENIVTILNVSREEYWSVDKGITIHPFPLEDNAEENIRKFFSHTYRLLEAARSSASPARPPCVLVHSRYGISRSVTIVLAYLMRRNGWSLNDALQYVMCRRPHVEPNVGFMNVLLSFQRDMDPQKRDIQRNEGHHHHHH”, the “soluble on expression in E. coli” value was “not soluble”. For “MSQVLTTYETPVLPEWVDYNGHLRDAFYLLVFSYATDALMAHIGLDSQNRDASGHSLFTLECHLNFLHEVKEGARVEVRTQLLGHDRKRLHIHHALYLPGSGQALALSEQMLLHVSLDGPRSAPFEGEVLARVEALAEAHRALPVPEGVGRVIGLPPVR”, the “soluble on expression in E. coli” value was “not soluble”. In the case of “MSVTQIDLDDEALADVMRIAAVHTKKEAVNLAMRDYVERFRRIEALARSRE”, the “soluble on expression in E. coli” value was “soluble”. For “MGHHHHHHSHIVERVIEATLPTKFYGTFRAVGYKTPLGEIVALVKGRVDEGDVLVRIHSECLTGDVFHSLRCDCGDQLENALKMIDREGKGVAIYMRGHEGRGIGLINKLMAYKLQEEGKDTVDANIELGFPPDMRSYGIAAQILMDLKVKSIRLLTNNPLKIEELKKYGFKIVREPIE”, the “soluble on expression in E. coli” value was “soluble”. In the case of “AHHHHHHGSKAIILAAGKGERLRPLTDDRPKVVLKIANKPIISYVLENLDPFVDEFIIVVKYMKEKVIDLLGDEFRGKPITYVEQGEEEGTAAAVYSVKEFIESNEEFFVVNGDLYFEPDAVKGLLHVFKKEKGDAGIVVKEFENLSQYGMVEVENGKVKGIIEKPGNVKGYANLGIYIFKSDVFDYIENTEISERGEYEITDTINLMIKDGKSVVYYNYEGFWSDIGRPWDLLEVNEYILKTKLKHEIRGVVEEGATIIPPVEIGEGTIVRAGSYIIGPVKIGKNCRIGPNCYIRPYTSIGDNCHIGNAVEVKNSIIMDNSNAPHLNYVGDSIIGENTNLGAGTITANLRHDKGTIKVEVKGKLEDSGRRKLGAIIGHNVKVGINVTIYPGRKIGSNSFIGPGVIVDKNIPQNVLVTVKQEKKVIEK”, the “soluble on expression in E. coli” value was “soluble”. With “MTKQQKGFVTGQPTGALNLSDILDSEELGEYHLMSAAIITGNTVDFSGLGAGPDDPFEIASITKIFTGELLRLQIERGEITESTAVGDVLGERVADSLIRDITVEELANHTSGLPRLGNVGLRPFMATFFDKNPYKDLSADRVISISTTSKLNSRGEFHYSNLGFALLGQVLARNAGLTFDQLLDRDLLAPLNLNNTKLMTPESLAQDAPQGFSTPGKQVEAWEMDGFLPAAGLRSTARDMAVFCQYLFTKGPAPFTWQSLESAPEIVWHNGESFGYSSVLFFNTATTTAIFVAADVATSVFPIGHELLMANSTRQESKLEHHHHHH” the “soluble on expression in E. coli” value was “not soluble”. With “MGSDKIHHHHHHMTPSDTNAPVDRLKIGFVLARSFTLSAFALFVDTLRLASDEFDRSGRVLADWDVLGSTRHLITSSCGVQVAPTSDLVEDPSQFQFIVVVGGLLNNEQPIDRETAAFLKKAAAKNVKLIGVCTGSFILAELGLMKSHRTCVSWLHYNAFRERFPDLQVRSDRIFNLDRTRGSCVGGSSAADMAALIVRRHISKDAERNALEVLHIEKARSALAIQTRKPLSIECNDPRIRATLIMMEQHIEGNLPIQDLAAAVGLSRRQLERLFISETKSSPAMIYRRVRLERAKHLLVQSKAPLVEIALEVGFGNASHFAKVFAQTFGQSPTGLRTAIRATL” the “soluble on expression in E. coli” value was “not soluble”. For “MLSYRHAFHAGNHADMLKHFTLFLVLQYFNRKDKPYWYIDTHGGAGVYNLEGSEAQKVGEYRQGIALLRQAQNLPAELSDFAAHIQKILPSPKLYCGSPWLAQSLTRVGDKLRLFELHPTDFVHLQNNMGEAGLGKRGQVLREDGYKGLISLLPPPPRRATVLIDPPYEEKQDYRRVTETLKAALKRFESGCYLIWYPCLSREESRKLPEELKKLLPDNYLHAELHVHAPKADGFGMHGSGMFVINPPYLLAEQLAANLPALTRLLAQDEGSRYLLDSKIR”, the “soluble on expression in E. coli” value was “not soluble”. With “MTATWEKKEGNEGLLTVTVPAEKVNKALDQAFKKVVKQINVPGFRKGKVPRPIFEQRFGVEALYQDAIDILLPDAYGEAIDETDIKPVAQPEVSVTQIEKGKDFIFEATVTVEPEVKLGDYKGLEIEKQETELSDDELQEAIDHSLGHLAEMVVKEDGVVENGDTVNIDFSGSVDGEEFEGGQAEGYDLEIGSGSFIPGFEEQLEGMKVDEEKDVVVTFPEEYHAEELAGKEATFKTKVNEIKFKEVPELTDEIANELDAEANTVDEYKENLRKRLAEQKATDAENVEKEEAITKATDNTTIDIPEAMVNTELDRMVSEFAQRIQQQGLDLQTYFQISGQDETQLREQMKDDAEQRVKTNLTLTAIAEAEKIEATDEDIDKELEKMSKQFNISVEDIKNTLGNTDIIKNDVRIQKVIDLLRDNAKFVEGTKED” the “soluble on expression in E. coli” value was “not soluble”. With “MIFFSVALTTLLVGLSNGCFCPPVISPSCGCGGGGYSSYSGGGYGGGYGGGAINGYATFYRDLTPFRQPYYQTASYPQYQQGPAQSLQQMYQLPNPRYIQPQAPRPQYISRPAPRPAPAPYQPPRVQERPYVQPAAPVAELAETRKNTLHDNGYGEEIERTTYTPVVTAAPVYETDAPTIVTQAPAVEEVPDFDETPVKKGEKDEFYYAYYDDKGNKVGDSRSGTTFAPENVIVEEEATVAPAPASIHMDVTTERVEVANENYDDVVEETQVPVRTSLSPSYTPEVVTSSTVLFMEPRVEAKTVAPAAHENTEVVYEDETVEYEDDGHSETSELPSTKKPQSAEFKRTVQDNQILVDAAENTGEGYRRRNAVNGVRIVKRFRHDERKIHSN” the “soluble on expression in E. coli” value was “not soluble”.
